Patent publication US5863889A, “ICAM-1/LFA-1 short-chain peptides and method of using same” (The University of Kansas, priority 1996, dated 1999)
Entries after “also recorded” stand apart in the source; their conditions may differ.

What was measured:
Molt3 cells [1] = assay: Homotypic adhesion assay (MDHC-induced clumping of T-cells); type: cell-based, human; set-up: key to Homotypic Adhesion Amount: Any sample having a score of "+++" or "++++" is considered to have a significant ability to modulate T-cell binding interaction; Any sample having a score of "+++" or "++++" is considered to have a significant ability to modulate T-cell binding interaction; settings: 10 μM MDHC
Method: As before, the T-cells were Molt3 cells prepared in RPMI 1640 growth medium according to Example 2. An approximate 7 ml aliquot of the growth medium was centrifuged (Jouan Model GT422 at 1400 rpm for 6.5 minutes), and the supernatant fluid was decanted. The pellet was resuspended in the supernatant fluid at titer of about 1×10^6 cells/ml, with the excess supernatant fluid being retained for future resuspension of the peptides.
A 228 nmol quantity of the LJCRF-1 (Sequence ID No. 6) peptide described in Table 1 was diluted with the supernatant fluid to a 500 μl final volume, and filtered in microcentrifuge filter tubes (0.22 micron filter; 3500 rpm for 6 minutes). Serial dilution of the filtered peptide with supernatant fluid was conducted to yield five 125 μl peptide solutions to give respective concentrations of about 115 μM, 230 μM, 460 μM, 910 μM, and 1.82 mM. At each concentration, a 125 μl portion of the cell suspension was pipetted into each 125 μl portion of the peptide solutions to yield combined samples having a 250 μl volume. The 250 μl samples were seeded into individual wells in a 48-well tissue culture grade plate (from Costar of Cambridge, Md.) and incubated at 37° C. for 30 minutes. Each sample received 5 μl of 2,5-methyl dihydroxy cinnamate ("MDHC") for a 10 μM final concentration, and was subsequently incubated for about 10 hours at 37° C. MDHC induces intercellular clumping of human T-cells (Tibbetts, Butler, and Benedict, submitted) by activating the LFA/ICAM binding interaction between respective cells.
Pictures were taken of five random fields per sample using an Olympus photomicroscope having a 0.8 mm field at 400×magnification, and a 3.2 mm field of view at 100×magnification. The amount of clumping observed was quantified by determining the mean number of clumps per field ± a standard error.
FIGS. 5, 6, and 7 replicate photographs taken from exemplary peptide assays. FIG. 5 is a photograph of the control sample having no peptides and no MDHC added, from which essentially no clumping of cells is observed. […] Any sample having a score of "+++" or "++++" is considered to have a significant ability to modulate T-cell binding interaction. This is similar to results obtained by incubating similarly treated cells with antibody against either LFA or ICAM.
The homotypic adhesion assay assesses the actual ability of a candidate peptide to modulate the ability of T-cells to adhere with one another.

Molt3 cells [2] = assay: Cell metabolic assay (MTT); type: cell-based
Method: After taking the photographs in Example 3 (and in some instances no photographs were taken), cell metabolic activity was assessed by an MTT assay. A 37.5 μl portion of MTT dye (purchased from SIGMA of St. Louis, Mo.), i.e., 3-[4,5-dimethyl thiazole-2yl]-2, 5- diphenyl tetrazolium bromide; thiazolyl blue) was added to each well, and incubated with the cells at 37° C. for about six hours. After incubation, a 250 μl quantity of a MTT solubilization solution (of a type that may be purchased from either Fischer Scientific of St. Louis, Mo. or BCD Labs of Lawrence, Kans.) was added to each well, and incubated with the cells at room temperature overnight. In the morning, the spectrophotometric absorption of each plate was determined at 570 nm in a microplate ELISA reader manufactured by Cambridge Technologies of Water-town, Mass., in order to assess cell viability as an indicator of potential peptide toxicity.

ICAM-1 = molecular target: T1, ICAM-1 (Homo sapiens, UniProt P05362); assay: Conformation modulator assay: flow cytometry of FITC-labeled RB-1-88 binding to T-cells after pre-incubation with first peptide; type: cell-based; settings: first peptide 4550 μM
T1 construct: host or cells: Molt3 human T-cell leukemia line
Method: The antibody binding assay of Example 2 was twice repeated at a peptide concentration of 4550 μM, each time substituting a 455 nmol quantity of synthetic peptide selected from the group consisting of ICAM-based peptide SC-3-111 (Sequence ID No. 10) and LFA-based peptide LJCRF-4 (Sequence ID No. 16) in respective assays. Following incubation for 30 minutes at 37° C. after introduction of the first peptides, both incubated culture were supplemented by an additional quantity of FITC-labeled RB-1-88 (Sequence ID No. 19) peptide in a quantity sufficient to provide a 1.90 μM concentration in the cell/PBS solution.
Following addition of the RB-1-88 (Sequence ID No. 19) peptide, the mixture was incubated for 30 minutes at 4° C., washed three times with 500 μl PBS/BSA, resuspended in 500 μl PBS/BSA and immediately subjected to a flow cytometer analysis as before. Table 3 presents the results of this analysis, which are also depicted in FIGS. 8 (SC-3-111) and 9 (LJCRF-4).

T1 sequence (P05362 28-532): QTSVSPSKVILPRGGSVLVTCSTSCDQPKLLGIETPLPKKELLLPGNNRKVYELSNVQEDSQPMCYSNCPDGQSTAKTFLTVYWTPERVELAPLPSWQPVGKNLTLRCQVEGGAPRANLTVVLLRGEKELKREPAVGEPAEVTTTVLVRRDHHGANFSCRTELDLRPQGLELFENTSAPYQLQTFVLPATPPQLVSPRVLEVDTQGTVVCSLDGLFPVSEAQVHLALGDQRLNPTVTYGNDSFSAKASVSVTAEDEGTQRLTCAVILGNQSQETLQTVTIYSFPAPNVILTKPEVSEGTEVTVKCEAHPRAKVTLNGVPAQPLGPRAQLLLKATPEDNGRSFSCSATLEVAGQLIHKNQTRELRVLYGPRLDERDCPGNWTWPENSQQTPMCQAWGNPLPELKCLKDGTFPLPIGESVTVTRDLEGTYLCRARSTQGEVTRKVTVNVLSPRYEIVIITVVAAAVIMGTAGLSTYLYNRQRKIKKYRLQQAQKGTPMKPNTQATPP

Substance: SC-3-111: ICAM-1 based short-chain peptide, Sequence ID No. 10 (QTSVSPSKVI)
- Homotypic Adhesion Effect (Molt3 cells [1]; peptide 230 μM): Block
- Homotypic Adhesion Effect (Molt3 cells [1]; peptide 460 μM): Block
- Homotypic Adhesion Amount (Molt3 cells [1]; peptide 910 μM): ++++
- Homotypic Adhesion Effect (Molt3 cells [1]; peptide 910 μM): Block
- Homotypic Adhesion Amount (Molt3 cells [1]; peptide 1820 μM): +++
- Homotypic Adhesion Effect (Molt3 cells [1]; peptide 1820 μM): Block
- MTT % Viability (Molt3 cells [2]; peptide 230 μM): 93%
- MTT % Viability (Molt3 cells [2]; peptide 460 μM): 95%
- MTT % Viability (Molt3 cells [2]; peptide 910 μM): 89%
- MTT % Viability (Molt3 cells [2]; peptide 1820 μM): 69%
- FACS Analysis (RB-1-88 binding) (ICAM-1; then FITC-labeled RB-1-88 1.90 μM, shift vs control): -8%
- negative blocking shift of RB-1-88 binding (FIG. 8) (ICAM-1; then RB-1-88 1.90 μM, called probably not significant): 8%
- effect on binding of labeled peptide (RB-1-88 / LJCRF-6) to T-cell ICAM-1 (ICAM-1; FIGS. 8, 9): substantially no T-cell binding enhancement; also recorded: no effect
